According to patent publication US20140322253A1 (FRED HUTCHINSON CANCER RESEARCH CENTER, published 2014):

B1: CCNA1 341-351 peptide SLIAAAAFCLA (peptide)
peptide: SLIAAAAFCLA
notes: Synthetic peptide; also called the 11-mer
B2: CCNA1 227-235 peptide FLDRFLSCM (peptide)
peptide: FLDRFLSCM
notes: Synthetic peptide; also called the 9-mer

The binders below were run against T1, HLA A*0201 on T2 cells (human) (assay: HLA stabilization assay on T2 cells, flow cytometry with anti-HLA A,B,C (W6/32)).
T1 construct: MHC class I on the surface of T2 cells; surface level read with FITC-labeled anti-HLA A,B,C (W6/32)
Experimental: T2 cells were pulsed with 100 μg/ml peptide in serum-free RPMI containing 1 μg/ml β-2-microglobulin (Sigma) for 16 h. Cells were then washed and incubated for 4 h in the presence of 5 μg/ml brefeldin A (Sigma), and then stained with FITC-labeled anti-HLA A, B, C (clone W6/32, BD Bioscience).

Binding result, binds:
B1, SLIAAAAFCL [10-mer SLIAAAAFCL (10-mer 1)], B2
